{"source": "patent US8663912B2", "about": "“Fluorogenic substrate for ADAMTS13” (Washington University, priority 2011, dated 2014)", "target": "T1, ADAMTS13 (Homo sapiens, UniProt Q76LX8)", "T1 sequence (Q76LX8 75-1427)": "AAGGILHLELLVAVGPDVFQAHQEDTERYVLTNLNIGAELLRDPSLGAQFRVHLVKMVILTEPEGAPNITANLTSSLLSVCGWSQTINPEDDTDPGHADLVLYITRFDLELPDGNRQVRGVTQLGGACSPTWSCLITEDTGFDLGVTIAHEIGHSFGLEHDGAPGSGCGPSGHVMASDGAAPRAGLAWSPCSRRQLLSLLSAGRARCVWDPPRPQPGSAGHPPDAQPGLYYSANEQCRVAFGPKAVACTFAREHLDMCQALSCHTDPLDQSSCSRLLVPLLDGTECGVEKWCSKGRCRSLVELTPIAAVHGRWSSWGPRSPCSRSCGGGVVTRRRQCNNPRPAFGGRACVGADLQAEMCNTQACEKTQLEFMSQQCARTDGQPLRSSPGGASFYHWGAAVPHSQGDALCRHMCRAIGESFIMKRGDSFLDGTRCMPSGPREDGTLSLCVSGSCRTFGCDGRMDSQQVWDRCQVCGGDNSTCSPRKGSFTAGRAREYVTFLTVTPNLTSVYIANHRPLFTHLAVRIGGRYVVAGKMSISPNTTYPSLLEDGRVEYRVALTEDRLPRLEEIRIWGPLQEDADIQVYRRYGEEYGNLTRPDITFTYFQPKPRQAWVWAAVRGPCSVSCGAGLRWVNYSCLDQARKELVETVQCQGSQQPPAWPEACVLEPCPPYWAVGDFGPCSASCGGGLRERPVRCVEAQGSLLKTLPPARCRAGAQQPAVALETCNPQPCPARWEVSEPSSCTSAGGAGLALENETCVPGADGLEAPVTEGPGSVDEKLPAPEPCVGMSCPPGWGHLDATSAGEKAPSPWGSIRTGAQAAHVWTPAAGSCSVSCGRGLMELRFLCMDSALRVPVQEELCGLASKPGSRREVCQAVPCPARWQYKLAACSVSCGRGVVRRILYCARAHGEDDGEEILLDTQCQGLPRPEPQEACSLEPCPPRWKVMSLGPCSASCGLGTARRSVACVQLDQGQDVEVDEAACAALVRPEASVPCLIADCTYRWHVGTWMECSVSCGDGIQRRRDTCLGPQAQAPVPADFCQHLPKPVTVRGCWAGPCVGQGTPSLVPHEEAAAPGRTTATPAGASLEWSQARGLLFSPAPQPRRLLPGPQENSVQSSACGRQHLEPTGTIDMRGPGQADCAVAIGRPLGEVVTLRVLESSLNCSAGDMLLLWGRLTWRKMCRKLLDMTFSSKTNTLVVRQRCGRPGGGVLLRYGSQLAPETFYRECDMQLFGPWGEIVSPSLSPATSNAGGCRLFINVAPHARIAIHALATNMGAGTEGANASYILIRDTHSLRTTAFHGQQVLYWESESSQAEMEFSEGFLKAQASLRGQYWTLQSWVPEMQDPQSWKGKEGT", "experiment": "Effect of bilirubin and hemoglobin on FRETS-rVWF71 ADAMTS13 assays", "type": "biochemical", "parameters": "FRETS-rVWF71 cleavage by plasma ADAMTS13 (50 μL) was assessed in 200 μL reactions; from tissue; host or cells: human plasma or serum (pooled normal plasma, healthy donors, TTP patients)"}
{"substance": "hemoglobin", "values": [{"measurement": "IC50 for inhibition of ADAMTS13 activity", "setting": "FRETS-rVWF71 substrate", "result": "10-15 g/L"}, {"measurement": "effect on detection of FRETS-rVWF71 cleavage products", "setting": "hemoglobin ≦20 g/L", "result": "did not affect"}]}
